According to a protein production outcome set (Wang et al. 2014):

Experiment: label from the status in PepcDB records

With “MKIGVYGASGRIGKLLLEELKGGYKGLALSSVFVRQKCETDFSSFSHAPLVTNDLKAFVRACECVIDFSLPKGVDNLLEALLECPKILVSGTTGLEKETLEKMQQLALKAPLLHAHNMSIGIMMLNQLAFLTSLKLKDADIEIIETHHNLKKDIPSGTALSLYETCAKARGYDEKNALITHREGLRSKESIGIAALRGGDVAGKHTIGFYLEGEYIELSHTATNRSIFAKGALEVALWLKDKAAKKYEINEMFG” as the sequence, how does the protein production read?
Its protein production is “failed”.

For “MKIIDKLYEKVSKNGFVCIGLDSSIDYIPENMKAGKSVSEALFSYNKEIIDQTYDVCAIYKLQIAYYESYGIEGMIAYRDTLSYLREKDLLSIGDVKRSDIAASAKMYAKAHFEGDFETDFITLNPYMGMDSIEPYEEYIEKGDKGVFVLLRTSNPGAKDFEVLPVDGEEFFYKVGDKMRELNEKYIGKSGFGPIGLVVGATHSEEVEKIRKRYDKMFFLIPGFGAQKADSMNVYKLLEGLNGGVVNSSRAILKNWQNYEDGSEKVGYYARKKAIETYEEIKANEVL”, which protein production is on record?
The protein production was “not failed”.

For “MKIIKRAIISLIILSLLISITMSNASASEELYYSVEYKNTATFNKLVKKKSLNVVYNIPELHVAQIKMTKMHANALANYKNDIKYINATCSTCITSEKTIDRTSNESLFSRQWDMNKITNNGASYDDLPKHANTKIAIIDTGVMKNHDDLKNNFSTDSKNLVPLNGFRGTEPEETGDVHDVNDRKGHGTMVSGQTSANGKLIGVAPNNKFTMYRVFGSKKTELLWVSKAIVQAANDGNQVINISVGSYIILDKNDHQTFRKDEKVEYDALQKAINYAKKKKSIVVAAAGNDGIDVNDKQKLKLQREYQGNGEVKDVPASMDNVVTVGSTDQKSNLSEFSNFGMNYTDIAAPGGSFAYLNQFGVDKWMNEGYMHKENILTTANNGRYIYQAGTSLATPKVSGALALIIDKYHLEKHPDKAIELLYQHGTSKNNKPFSRYGHGELDVYKALNVANQKAS”, which protein production is on record?
The protein production was “not failed”.

With “MKIITCYKSVPDEQDIVVNNADGSLDFSRANNKISQYDLNAIEAANQLKTQLDGIQITAMSVGGNALTNAKARKDVLSRGADDLVVVVDEQLEASLPYQTATVLAAAATKQGYDLILCGDGSADLSSQQVSLLVGEILNIPAINGVNKIVSITTDSITVERELENEIETLTITLPAVIAVSTDINSPQIPSMKAILGAAKKPVQQWSVADLGLEPITPRSEQTVLAPKQKVRQRIIIEGDGDDQIAEFAEYLRKIIK” as the sequence, how does the protein production read?
Its protein production is “failed”.

Which protein production does the source give for “MKIIVVGGGKVGKALCRSLVEEEHDVILIEENESVLNHVTKRLDIMGIVGNGANFRILEQADVQHCDIFIAITDKDEVNMVAAVLAKRMGAKETIVRVRNPEYSNTYFKDKNFLGFSLVVNPELLTARYIANMVDFPNARSVEHFVNGRVMLMEFKIVDGNNLCQMSLNQFRKRFNNIVICAIERGNELIIPDGDAVIQSGDKIFVTGKRMEMIHFHNFVKNKVIKHLMIIGAGRISYYLLNILKTTNRHLQVKVIELNPKKAELFSQEFPHIHVVQGDGTAKDILLEESAANYDAIATLTGVDEENIIASMFLETLGVQKNITKVNRTSILEIINPEQFSSIITPKSIAVDSMMHFIRGRVNAQDSNLDAMHHVANGRIETLQFEIRQTNKMAGKTLSELHFKTNVLIAAIIRNGKTIFPTGDDILEVGDKIVVITLLTNITHIYDLLKR” here?
Its protein production is “failed”.
